Laboratory results: patent US20260152559A1 (Janssen / Centocor, published 2026)

B1: KL2B53 Fab arm of an hK2/CD3 bispecific antibody (Table 39) (bispecific antibody)
chain 1: EVQLVESGGGVVQPGRSLRLSCVASGFTFSSYDIHWVRQAPGKGLEWVAIISYDGSKKDYTDSVKGRFTISRDNSKNTLYLQMDSLRVEDSAVYSCARESGWSHYYYYGMDVWGQGTMVTVSSASTKGPSVFPLAPSSKSTSGGTAALGCLVKDYFPEPVTVSWNSGALTSGVHTFPAVLQSSGLYSLSSVVTVPSSSLGTQTYICNVNHKPSNTKVDKKVEPKSCDKTHTCPPCPAPEAAGGPSVFLFPPKPKDTLMISRTPEVTCVVVSVSHEDPEVKFNWYVDGVEVHNAKTKPREEQYNSTYRVVSVLTVLHQDWLNGKEYKCKVSNKALPAPIEKTISKAKGQPREPQVYVLPPSREEMTKNQVSLLCLVKGFYPSDIAVEWESNGQPENNYLTWPPVLDSDGSFFLYSKLTVDKSRWQQGNVFSCSVMHEALHNHYTQKSLSLSPG
chain 2: DIVMTQSPSSLSASVGDRVTITCRASQDISNYLAWYQQKPGKVPKFLIYAASTLHSGVPSRFSGSGSGTDFTLTISSLQPEDVATYYCQKYNSAPYTFGQGTRLEIKRTVAAPSVFIFPPSDEQLKSGTASVVCLLNNFYPREAKVQWKVDNALQSGNSQESVTEQDSKDSTYSLSSTLTLSKADYEKHKVYACEVTHQGLSSPVTKSFNRGEC
chain 3: DIQMTQSPSSLSASVGDRVTITCRARQSIGTAIHWYQQKPGKAPKLLIKYASESISGVPSRFSGSGSGTDFTLTISSLQPEDFATYYCQQSGSWPYTFGQGTKLEIKGGSEGKSSGSGSESKSTGGSEVQLVESGGGLVKPGGSLRLSCAASGFTFSRYNMNWVRQAPGKGLEWVSSISTSSNYIYYADSVKGRFTFSRDNAKNSLDLQMSGLRAEDTAIYYCTRGWGPFDYWGQGTLVTVSSEPKSSDKTHTCPPCPAPEAAGGPSVFLFPPKPKDTLMISRTPEVTCVVVSVSHEDPEVKFNWYVDGVEVHNAKTKPREEQYNSTYRVVSVLTVLHQDWLNGKEYKCKVSNKALPAPIEKTISKAKGQPREPQVYVYPPSREEMTKNQVSLTCLVKGFYPSDIAVEWESNGQPENNYKTTPPVLDSDGSFALVSKLTVDKSRWQQGNVFSCSVMHEALHNHYTQKSLSLSPG
B2: CAR19 (KL2B359_HL) (other)
chain: QVQLQESGPGLVKPSQTLSLTCTVSGNSITSDYAWNWIRQFPGKRLEWIGYISYSGSTTYNPSLKSRVTISRDTSKNQFSLKLSSVTAADTAVYYCATGYYYGSGFWGQGTLVTVSSGGSEGKSSGSGSESKSTGGSEIVLTQSPATLSLSPGERATLSCRASESVEYFGTSLMHWYQQKPGQPPRLLIYAASNVESGIPARFSGSGSGTDFTLTISSVEPEDFAVYFCQQTRKVPYTFGGGTKVEIKTSTPAPRPPTPAPTIASQPLSLRPEACRPAAGGAVHTRGLDFACDIYIWAPLAGTCGVLLLSLVITLYCKRGRKKLLYIFKQPFMRPVQTTQEEDGCSCRFPEEEEGGCELRVKFSRSADAPAYKQGQNQLYNELNLGRREEYDVLDKRRGRDPEMGGKPRRKNPQEGLYNELQKDKMAEAYSEIGMKGERRRGKGHDGLYQGLSTATKDTYDALHMQALPPR
B3: CAR17 (KL2B413_HL) (other)
chain: EVQLVESGGGLVQPGGSLRLSCAASGFTFSSYWMTWVRQAPGKGLEWVANIKQDGSERYYVDSVKGRFTISRDNAKNSLYLQMNSLRAEDTAVYYCARDQNYDILTGHYGMDVWGQGTTVTVSSGGSEGKSSGSGSESKSTGGSEIVLTQSPSFLSASVGDRVTITCRASQGISSYLSWYQQKPGKAPKLLIYATSTLQSGVPSRFSGSGSGTEFTLTISSLQPEDFATYYCQQLNSYPRTFGQGTKVEIKTSTPAPRPPTPAPTIASQPLSLRPEACRPAAGGAVHTRGLDFACDIYIWAPLAGTCGVLLLSLVITLYCKRGRKKLLYIFKQPFMRPVQTTQEEDGCSCRFPEEEEGGCELRVKFSRSADAPAYKQGQNQLYNELNLGRREEYDVLDKRRGRDPEMGGKPRRKNPQEGLYNELQKDKMAEAYSEIGMKGERRRGKGHDGLYQGLSTATKDTYDALHMQALPPR
B4: CAR20 (KL2B359_LH) (other)
chain: EIVLTQSPATLSLSPGERATLSCRASESVEYFGTSLMHWYQQKPGQPPRLLIYAASNVESGIPARFSGSGSGTDFTLTISSVEPEDFAVYFCQQTRKVPYTFGGGTKVEIKGGSEGKSSGSGSESKSTGGSQVQLQESGPGLVKPSQTLSLTCTVSGNSITSDYAWNWIRQFPGKRLEWIGYISYSGSTTYNPSLKSRVTISRDTSKNQFSLKLSSVTAADTAVYYCATGYYYGSGFWGQGTLVTVSSTSTPAPRPPTPAPTIASQPLSLRPEACRPAAGGAVHTRGLDFACDIYIWAPLAGTCGVLLLSLVITLYCKRGRKKLLYIFKQPFMRPVQTTQEEDGCSCRFPEEEEGGCELRVKFSRSADAPAYKQGQNQLYNELNLGRREEYDVLDKRRGRDPEMGGKPRRKNPQEGLYNELQKDKMAEAYSEIGMKGERRRGKGHDGLYQGLSTATKDTYDALHMQALPPR

How the values were obtained:
[1] = target: human CD3 on cells (Jurkat cells, primary human T cells) (human) (UniProt P07766); experiment: flow cytometry, 10 nM antibody on Jurkat cells; no-antibody background 2075.61
[2] = target: T1, kallikrein related peptidase 2 (hK2), soluble (human, UniProt P20151 19-261, biotin label in the CAR staining assays (site not stated)); experiment: SPR; bispecific antibody captured on anti-Fc sensor chip, soluble hK2 injected; 1:1 Langmuir fit
T1 construct: also called KLK2; human KLK2 protein

[3] = target: hK2 on target cells (VCaP, LNCaP/hK2 and other hK2 positive tumor cells) (human, UniProt P20151 19-261); experiment: cell-based or functional assay
Chain of hK2 on target cells (VCaP, LNCaP/hK2 and other hK2 positive tumor cells) (P20151 19-261): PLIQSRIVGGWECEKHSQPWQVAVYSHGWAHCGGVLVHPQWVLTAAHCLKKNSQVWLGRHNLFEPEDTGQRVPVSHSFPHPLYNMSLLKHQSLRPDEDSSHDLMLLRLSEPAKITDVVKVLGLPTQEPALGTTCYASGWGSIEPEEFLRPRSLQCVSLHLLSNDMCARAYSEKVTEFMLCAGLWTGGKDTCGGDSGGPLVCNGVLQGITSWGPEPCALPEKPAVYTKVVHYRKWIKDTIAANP

T1 sequence (P20151 19-261): as above
Chain of human CD3 on cells (Jurkat cells, primary human T cells) (human) (P07766 23-207 limits assumed): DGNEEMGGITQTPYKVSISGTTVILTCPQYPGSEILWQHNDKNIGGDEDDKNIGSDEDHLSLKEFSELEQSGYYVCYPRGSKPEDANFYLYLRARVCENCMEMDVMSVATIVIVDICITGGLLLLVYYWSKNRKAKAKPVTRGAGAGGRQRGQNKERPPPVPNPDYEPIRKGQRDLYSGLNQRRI

Molecule	tumor cell growth inhibition (TGI) of VCaP cells, IncuCyte killing assay, 96 hours, E:T 1:1 or 0.5:1 [3] [%]	further results
UCHT1 (antibody)	–	MFI (mean fluorescence index) (arbitrary units) [1]: 89200
B1	–	Kd [2]: 0.1 nM
B2	~100	–
B3	~100	–
B4	~100	–
